Measured values published in patent US20190070248A1 (BIONTECH, published 2019).
Positions of bridges follow the written chain, without caps; N, C: chain ends. No end group written: not given here. *: point of attachment. Biotin = O=C1N[C@H]2[C@H](CS[C@H]2CCCCC(=O)*)N1

Experiments:
[1] = biological target: T1, TR66 antibody (CD3ε specific antibody, clone TR66); assay: apparent KD, peptide ELISA, biotinylated peptide on streptavidin plate, TR66 titrated, two-site saturation fit
T1 construct: Whole antibody

[2] = biological target: T1, TR66 antibody (CD3ε specific antibody, …); assay: peptide ELISA, apparent KD against the parental peptide

B1: aCD3-04-008 (ACTRPGDPAC-GGGS-K(Bio)) (peptide)
peptide: ACTRPGDPACGGGSK(Biotin)
modifications: disulfide 2-10 (inferred)
Kd [1]: 164 nM

B2: aCD3-04-009 (ACTRPGDPYC-GGGS-K(Bio)) (peptide)
peptide: ACTRPGDPYCGGGSK(Biotin)
modifications: disulfide 2-10 (inferred)
Kd [1]: 167 nM

B3: aCD3-04-014 (ACTRPDDPWC-GGGS-K(Bio)) (peptide)
peptide: ACTRPDDPWCGGGSK(Biotin)
modifications: disulfide 2-10 (inferred)
Kd [1]: 111 nM

B4: aCD3-04-013 (ACTRPDDPEC-GGGS-K(Bio)) (peptide)
peptide: ACTRPDDPECGGGSK(Biotin)
modifications: disulfide 2-10 (inferred)
notes: also called TR66 mimotope aCD3-04-013
fold lower apparent KD than the parental peptide aCD3 C7C-4 [2]: ~100 fold | Kd [1]: 4 nM

B5: aCD3-04-002 (ACTRPDDPQC-GGGS-K(Bio)) (peptide)
peptide: ACTRPDDPQCGGGSK(Biotin)
modifications: disulfide 2-10 (inferred)
fold lower apparent KD than the parental peptide aCD3 C7C-4 [2]: ~5 fold | Kd [1]: 78 nM

B6: aCD3 C7C-4 (ACTRPGDPQC-GGGS-K(Bio)) (peptide)
peptide: ACTRPGDPQCGGGSK(Biotin)
modifications: disulfide 2-10 (inferred)
notes: On the microarrays the peptide was immobilized covalently through a reactive moiety, not through K(Bio); also called clone 4; parental peptide
Kd [1]: 370 nM

B7: aCD3-04-006 (WCTRPGDPQC-GGGS-K(Bio)) (peptide)
peptide: WCTRPGDPQCGGGSK(Biotin)
modifications: disulfide 2-10 (inferred)
Kd [1]: 226 nM

B8: aCD3-04-007 (ACTRPEDPQC-GGGS-K(Bio)) (peptide)
peptide: ACTRPEDPQCGGGSK(Biotin)
modifications: disulfide 2-10 (inferred)
Kd [1]: 299 nM
